In assay [1] the target is T1, cynomolgus MDR1 (Macaca fascicularis) (Macaca fascicularis (cynomolgus), UniProt P08183 1-1280 (human entry)).
T1 construct: also called cB1; cynomolgus ABCB1
Briefly: flow cytometry on cells expressing cynomolgus MDR1. On the technique in general: Flow cytometry measures light scatter and fluorescence of single cells or particles in a stream.

The target of assay [2] is T2, human MDR1 (multidrug resistance protein 1) (human, UniProt P08183 1-1280). Briefly: cell-based or functional assay.
Assay [3] addresses T1, cynomolgus MDR1 (Macaca fascicularis). Briefly: flow cytometry, 293T cells transfected with cynomolgus MDR1.
Assay [4] concerns the target T2, human MDR1 (multidrug resistance …). Description: binding to C6 cells overexpressing human ABCB1 (FIGS. 17A-17B).
For assay [5] the target is unchanged. Description: flow cytometry, 293T cells stably expressing human ABCB1 (293T_ABCB1_OX).
For assay [6] the target is unchanged. Briefly: cell-based or functional assay. This is another data set of the same source.
The target of another assay is T3, human CD47 (human, UniProt Q08722 19-323).
T3 construct: whole, on cells; Overexpressed on rat C6 cells, or endogenous on human tumour cell lines; also called KT14; hKT14
Briefly: binding to C6 cells overexpressing human CD47 (FIGS. 17A-17B).

Assay [7] has as its target T2, human MDR1 (multidrug resistance …). Description: flow cytometry.
For assay [8] the target is unchanged. Description: flow cytometry, 293T cells overexpressing human MDR1.
Assay [9] deals with T1, cynomolgus MDR1 (Macaca fascicularis). Briefly: flow cytometry.

Several values for one entry are separate records, joined by “and”; a condition that tells them apart may be missing. Equal values may be shown once. Read-outs that look alike come from different tables or passages of the source.

B1: B1.261 (antibody, human IgG1, V domains shown)
VH: QVQLKESGPGLVAPSQSLSITCTVSGFSLTSYGVHWVRQPPGKGLEWLVVIWSDGSTTYNSALKSRLSISKDNSKSQVFLKMNSLQIDDTAMYYCARHGRWLLQRGGAMDYWGQGTSVTVSS
VL: DVVMTQAPKFMSTSVGDRVSVTCRASQNVGSYIAWYQQKLGQSPKALIYSASYRCSGVPDRFTGSGAGTDFTLTIRNVQSEDLAEYFCQQYNSYPLTFGGGTKLEIK
notes: expressed with human IgG1 heavy and human kappa light constant regions; also called KNJY B1-261; KB1.261
In the case of B1, the binding result in [1] was “binds”. Also, the “IC50 of vincristine on N6/ADR cells with antibody” value (from here on “IC50 of vincristine”) in [2] amounted to 0.0038 nM.

B2: B1.28 (antibody, human IgG1, V domains shown)
VH: EVKLVESGGGLVKPGGSLKLSCAASGFTFGLYTMSWVRQTPERRLEWVATISSGGSNTYYPDSVKGRFTISRDNAKNNLFLQMNSLRSEDTALYYCARYYRYDAWFAYWGQGTLVTVSS
VL: DVLLTQTPLSLPVSLGDQASISCRSSQNIVHSTGNTYLDWYLQKPGQSPKLLIYKVSNRFSGVPDRFSGSGSGTDFTLKISRVEAEDLGVYFCFQGSHIPRTFGGGTKLEIK
notes: expressed with human IgG1 heavy and human kappa light constant regions; also called KNJY B1-28; KB1.28
For the molecule B2, the “IC50 of vincristine” value in [2] was 3.34 nM and 2.87 nM. Moreover, in [3], the binding result is on record as “binds”.

B3: 15D3DD KT14KK B1.28.huL2 LC (bispecific antibody, human IgG1)
heavy 1: not shown
heavy 2: not shown
VL: DVVLTQSPLSLPVTPGEPASISCRSSQNIVHSTGNTYLDWYLQKPGQSPQLLIYKVSNRFSGVPDRFSGSGSGTDFTLKISRVEAEDVGVYYCFQGSHIPRTFGQGTKLEIK
B3: the binding result in [4] is “binds”.

B4: 15D3 (antibody, V domains shown)
VH: EVKVVESGGVLVRPGGSLKLSCAASGFTFSRYTMSWVRQTPEKRLEWVATISSGGGNTYYPDSVKGRFTVSRDNAMSSLYLQMSSLRSEDTALYYCARYGAGDAWFAYWGQGTLVTVSS
VL: DVLMTQTPLSLPVSLGDQASISCRSSQSIVHSTGNTYLEWYLQKPGQSPKLLIYKVSNRFSGVPDRFSGSGSGTDFTLKISRLEAEDLGVYYCFQGSHFPRTFGGGTRLEIK
notes: Known anti-MDR1 antibody; also called KPA01; 15D3 hybridoma
As for B4, in [5], the response was half-maximal at 14.6 nM (EC50). In assay [6], the “IC50 of vincristine” value was 0.466 nM.

B5: 15D3DD KT14KK B1.89v1 LC (bispecific antibody, human IgG1)
heavy 1: not shown
heavy 2: not shown
VL: DVLMTQTPLSLPVSLGDQASISCRSSQTIVHSNGNTYLEWYLQKPGQSPKLLIYKVSKRFSGVPDRFSGSGSGTDFTLKISRVEAEDLGVYYCFQASHFPRTFGGGTKLEIK
notes: also called 15D3DD/KT14KK/89v1
Consider B5, for which the binding result (in assay [4]; with human CD47) was “binds” throughout.

B6: BisAb-1 (15D3 HC-Hz1 DD hIgG1 / KT14 IgG1 KK / B1-28 VL humaniz) (bispecific antibody)
VH: EVQLVESGGVVVQPGGSLRLSCAASGFTFSRYTMSWVRQAPGKGLEWVATISSGGGQTYYPDSVKGRFTVSRDNSKNSLYLQMNSLRTEDTALYYCARYGAGDAWFAYWGQGTLVTVSS
heavy: not shown
VL: DVVLTQSPLSLPVTLGQPASISCRSSQNIVHSTGNTYLDWYQQRPGQSPRLLIYKVSNRFSGVPDRFSGSGSGTDFTLKISRVEAEDVGVYFCFQGSHIPRTFGQGTKLEIK
notes: The 15D3 Hz1 VH is fused to human IgG1 Fc with K392D and K409D (EU)
B6: in [5], the EC50 (usually the concentration that produces a half-maximal response) was 118 nM. Besides, the “IC50 of vincristine” value in assay [6] worked out at 0.0064 nM.

B7: 15D3DD KT14KK MRK16v5 LC (bispecific antibody, human IgG1)
heavy 1: not shown
heavy 2: not shown
VL: DIVMTQTPLSSPVTLGQPASISCRSSQSIVYSNGNTYLEWYQQKPGQPPRLLIYKISNRFSGVPDRFSGSGAGTDFTLKISRVEAEDVGVYYCFQASHFPRTFGGGTKLEIK
Regarding B7, the binding result (in assay [4]; with human CD47) was “binds” throughout.

B8: B1.129.huH1-huL1(KV3) (antibody, human IgG1, V domains shown)
VH: EVQLVQSGAEVKKPGASVKVSCKASGYTFSTYVIHWVRQAPGQGLEWIGYIYPYNDYTKYNEKFKDRATLTSDKSTSTAYMELRSLRSDDTAVYYCSRAYYGNLVGYGVDYWGQGTTVTVSS
VL: EIVLTQSPATLSLSPGERATLSCRASSSVSFIYWYQQKPGQSPRPWIFATSNLASGVPARFSGSGSGTDYTLTISSLEPEDFAVYYCHQWGSNLPTFGGGTKLEIK
notes: Humanized B1.129; Human IgG1/kappa constant regions; also called B1.129.hz1
Take B8: the binding result in [7] and in [3] was “binds” throughout.

B9: B1.129.huH1-huL1(KV1) (antibody, human IgG1, V domains shown)
VH: EVQLVQSGAEVKKPGASVKVSCKASGYTFSTYVIHWVRQAPGQGLEWIGYIYPYNDYTKYNEKFKDRATLTSDKSTSTAYMELRSLRSDDTAVYYCSRAYYGNLVGYGVDYWGQGTTVTVSS
VL: DIQLTQSPSSLSASVGDRVTITCRASSSVSFIYWYQQKPGKSPKPWIFATSNLASGVPSRFSGSGSGTDYTLTISSLQPEDFATYYCHQWGSNLPTFGGGTKLEIK
notes: Humanized B1.129; Human IgG1/kappa constant regions; also called B1.129.hz2
For the molecule B9, the binding result in assay [8] and in assay [3] was “no binding” throughout.

B10: B1.129 (antibody, human IgG1, V domains shown)
VH: EVQLQQSGPELVKPGASVKMSCKASGYTFSTYVIHWVKQKPGQGLEWIGYIYPYNDYTKYNEKFKDKATLTSDKSSSTAYMEIRSLTSEDSAVYYCSRAYYGNLVGYGVDYWGQGTSVTVSS
VL: QIVLTQSPAILPASPGEKVTMTCRASSSVSFIYWYQQRPGSSPKPWIFATSNLASGVPARFSGSGSGTSYSLTISRVEAEDAATYYCHQWGSNLPTFGGGTKLEIK
notes: expressed with human IgG1 heavy and human kappa light constant regions; also called KNJY B1-129; KB1.129
For B10, the binding result in assay [9] is reported as “binds”. For the same molecule, in assay [2], the “IC50 of vincristine” value is 0.0132 nM.

These data come from patent US20230203156A1 (WILLIAM ROBERT ARATHOON LIVING TRUST DATED AUGUST 29 2016, published 2023).
